Results on one molecule are retold here after patent US20170368132A1 (published 2017).

One assay has as its target T1, Rad51 (F86E; A89E) (human, UniProt Q06609 1-339).
T1 construct: Human RAD51 mutant tested by Y2H; also called human RAD51 F86E A89E
T1 chain: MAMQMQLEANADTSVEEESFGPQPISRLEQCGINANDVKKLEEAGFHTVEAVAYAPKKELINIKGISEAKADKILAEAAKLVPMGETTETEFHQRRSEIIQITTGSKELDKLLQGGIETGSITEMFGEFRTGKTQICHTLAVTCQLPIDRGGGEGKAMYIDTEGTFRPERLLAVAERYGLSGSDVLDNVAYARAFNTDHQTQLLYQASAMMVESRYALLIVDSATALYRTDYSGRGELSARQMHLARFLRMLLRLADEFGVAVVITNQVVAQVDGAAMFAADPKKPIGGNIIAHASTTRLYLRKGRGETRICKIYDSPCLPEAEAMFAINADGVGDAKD
The experiment in a line: yeast two-hybrid, human RAD51 mutant. The protocol:
(§1) The ability of peptides to bind human RAD51 with various mutations was then tested by Y2H assay. […] While mutations affecting BRCA2 binding had no effect on peptide binding, mutations that affected RAD51-AP1 binding did disrupt peptide binding. As these mutations were at residues 202, 205, and 206, they were consistent with the previous fusion data showing binding somewhere in the 190-218 region, and indicated the peptide SEQ ID NO.:5 contacts at least residues 202, 205, and 206 of RAD51.

The target of another assay is T2, Rad51 (A190L; A192L) (human, UniProt Q06609 1-339).
T2 construct: Human RAD51 mutant tested by Y2H; also called human RAD51 A190L A192L
T2 chain: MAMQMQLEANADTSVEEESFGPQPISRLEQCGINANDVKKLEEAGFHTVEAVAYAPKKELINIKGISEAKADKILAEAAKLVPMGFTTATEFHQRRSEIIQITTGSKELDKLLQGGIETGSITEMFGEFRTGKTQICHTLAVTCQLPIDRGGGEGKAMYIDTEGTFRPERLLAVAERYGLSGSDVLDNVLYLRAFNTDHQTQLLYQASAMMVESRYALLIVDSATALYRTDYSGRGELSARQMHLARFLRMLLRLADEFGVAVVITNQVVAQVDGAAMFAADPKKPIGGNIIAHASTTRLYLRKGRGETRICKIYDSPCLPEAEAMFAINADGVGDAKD
As to the kind of experiment: yeast two-hybrid, human RAD51 mutant. The protocol:
as §1

The target of another assay is T3, Rad51 (S208E; A209D) (human, UniProt Q06609 1-339).
T3 construct: Human RAD51 mutant tested by Y2H; also called human RAD51 S208E A209D
T3 chain: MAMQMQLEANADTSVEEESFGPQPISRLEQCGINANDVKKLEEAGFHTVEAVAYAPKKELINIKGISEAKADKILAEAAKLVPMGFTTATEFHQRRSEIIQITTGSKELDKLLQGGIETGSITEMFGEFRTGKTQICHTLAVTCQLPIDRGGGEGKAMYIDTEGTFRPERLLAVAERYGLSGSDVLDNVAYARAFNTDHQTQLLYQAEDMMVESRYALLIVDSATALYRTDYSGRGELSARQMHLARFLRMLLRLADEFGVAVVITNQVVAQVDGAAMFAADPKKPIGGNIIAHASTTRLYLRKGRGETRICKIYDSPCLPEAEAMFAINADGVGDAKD
The experiment in a line: yeast two-hybrid, human RAD51 mutant. On the procedure:
as §1

Assay [1] addresses T4, S. cerevisiae Rad51 (1-278) + H. sapiens Rad51 (218-339) (S. cerevisiae; H. sapiens, UniProt P25454 1-278).
T4 construct: range 1-278; Y2H fusion in yeast; also called cerevisiae-sapiens hybrid construct of RAD51
T4 sequence: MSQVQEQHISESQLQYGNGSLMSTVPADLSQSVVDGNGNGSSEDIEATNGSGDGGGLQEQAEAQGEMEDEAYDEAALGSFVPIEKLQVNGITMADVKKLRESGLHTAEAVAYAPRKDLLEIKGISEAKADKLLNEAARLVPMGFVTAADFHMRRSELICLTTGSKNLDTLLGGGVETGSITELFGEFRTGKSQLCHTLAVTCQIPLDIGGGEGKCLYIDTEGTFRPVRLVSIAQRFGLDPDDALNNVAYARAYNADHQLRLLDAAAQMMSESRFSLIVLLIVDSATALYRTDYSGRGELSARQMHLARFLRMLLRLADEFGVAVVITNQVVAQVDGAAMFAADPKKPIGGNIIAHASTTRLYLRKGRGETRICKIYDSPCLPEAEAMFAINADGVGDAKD
The experiment in a line: yeast two-hybrid, RAD51 hybrid construct.

As to KRRRRRRRKRLGVRLRVSRML [compound 5 peptide sequence (SEQ ID NO.:5)], the binding result in the assay with Rad51 (F86E; A89E) is recorded as “binds”; with Rad51 (A190L; A192L), “binds”; with Rad51 (S208E; A209D) it was “binds”; in assay [1], “no binding”.
